2 molecules from publication PMC3319784 can be followed below.

In assay [1] the target is first Sam domain of Odin (Odin-Sam1) (human) (UniProt Q92625). Description: ITC. On the technique in general: Isothermal titration calorimetry measures the heat released or taken up as one component is titrated into another.
In assay [2] the target is Sam domain of the EphA2 receptor (EphA2-Sam), wild type (human) (UniProt P29317). Description: SPR. Background: Surface plasmon resonance follows binding to a sensor surface in real time, without labels.

A word on the Kd: it is the equilibrium constant for the complex coming apart. Read a low Kd as a tighter complex. One may read the stoichiometry N as a count of units in the complex or per binding partner. As for “Sam domain of the EphA2 receptor (EphA2-Sam), wild type (from UniProt P29317 902-976) (domain or fragment)”, in assay [1], the Kd is 0.62 µM and the stoichiometry N was 1.

B1: first Sam domain of Odin (Odin-Sam1) (domain or fragment)
chain: ISGLRTLEQSVGEWLESIGLQQYESKLLLNGFDDVHFLGSNVMEEQDLRDIGISDPQHRRKLLQAARSLPKVKALGYDGN
In assay [2], B1 returned a dissociation constant (Kd) of 5.5 µM. This lies in the single-digit micromolar range.
